Patent US20060246095A1, “Multiepitope polypeptides for cancer immunotherapy” (HADASIT MEDICAL RESEARCH SERVICES & DEVELOPMENT LTD., priority 2003, published 2006)

Tests used:
DC = DC maturation in vitro (preliminary data); assay type: cell-based
Text: A non-toxic form of LT (NLT) was produced by the present inventors. […] Thus, NLT and LTB could be developed as a delivery system for the presentation of tumor antigens to the immune system.

[1] = LTB-MEP fusion protein functional assay (GM1 ganglioside ELISA, anti-MEP detection); assay type: binding; conditions: GM1 ganglioside coated plates, chicken anti-MEP antibodies
Method: LTB-MEP fusion protein expressed by the recombinant pQE30-LTB-MEP construct was tested for its ability to bind GM1 ganglioside and anti-MEP antibodies. LTB-MEP fusion protein was incubated in ELISA plates coated with GM1 ganglioside (which binds to native LTB) with chicken anti-MEP antibodies.
Only LTB-MEP molecules with functional LTB and MEP units can be detected by this assay. Boiled LTB-MEP protein losses its capability to bind to GM1 ganglioside and therefore could not be detected.
A BamHI-HindIII fragment encoding for MEP (SEQ ID NO: 1) was attached to a KpnI-HindIII fragment encoding for LTB (SEQ ID NO: 52) through a polynucleotide linker. The ligated product was cloned into pQE30 vector and transformed into E. Coli (JM109 strain). LTB-MEP fusion protein expressed in bacteria, was purified and further characterized by ELISA assay. Ganglioside GM1 coated plates were incubated at 37° C. in the presence of native or boiled LTB-MEP fusion protein, purified LTB and pQE30 DNA expression vector (without insert) molecules. […] LTB molecule is sensitive to temperature and heat treatment destroys its capability to bind to GM1 ganglioside. Since binding detection was performed using chicken anti-MEP antibodies only active LTB-MEP fusion protein could be detected.

B1: Purified LTB (protein)
chain: APQTITELCSEYRNTQIYTINDKILSYTESMAGKREMVIITFKSGETFQVEVPGSQHIDSQKKAIERMKDTLRITYLTETKIDKLCVWNNKTPNSIAAISMKN
DC
  DC maturation: induce DC maturation in vitro
[1]; treatment 37° C.
  OD 450 nm: 1.05
[1]; treatment Boiled
  OD 450 nm: 0.98
